Substrate: O=P(O)(O)O[C@H]1[C@H](OP(=O)(O)O)[C@@H](OP(=O)(O)O)[C@H](OP(=O)(O)O)[C@@H](OP(=O)(O)O)[C@H]1OP(=O)(O)O
Assay: purified protein
Details: 50 mM sodium acetate pH 4.0, 50 °C, ionic strength 50 mM (NaCl), 3 min, sodium phytate 0.006-0.800 mM

B1: Bd1204 (Bdellovibrio bacteriovorus HD100) (protein)
chain: QKSVSLTPDKPVSTKIPFFMTRPQPTTPVELVFDKDHAAPKPMNYRKSDSLRMSGSATFSPKALKEVAKPVKKNKASLYVFDLRQESHGLINDIPVTWYADRDWANADLNHEEAVRRERRLLGDLRVGDKIGTTAIQSIETEESMIRTGGHQYVRLTVTDHVRPVDSEVDRFIESVRALPENAWVHFHCRAGKGRTTTFMVLYDMLKNAKTDSFEEIIKRNTELSNDYDVLTVPADEKDWKYPYQKERAAFVTEFYNYAKAHPNGEGMLWGEWVLR
B1 showed a Km of 574 µM and a kcat of 124 s⁻¹.

From article PMC3981807
